Test results: patent publication US11708423B2, “Chimeric engulfment receptor molecules and methods of use” (CERO THERAPEUTICS, INC., priority 2017, dated 2023)

Tests used:
[1] = test system: staurosporine treated Jurkat cells; assay: Phagocytosis and cytolysis of staurosporine treated Jurkat cells by CER21+ human primary B cells; type: cell-based
Description: One day prior to setting up the phagocytosis assay, Jurkat human B lymphocytes were cultured in complete RPMI 1640 growth media supplemented with 10% fetal bovine serum and 1% penicillin-streptomycin in a 6 well plate and treated with 1 mM staurosporine for three hours to induce apoptosis. Jurkat cells were washed twice in lx PBS to remove excess staurosporine and then stained with pHrodo Red (1 ng/μ.1 in PBS) for 15 minutes at room temperature. The Jurkat cells were supplemented with growth media, washed once to remove excess pHrodo Red, and plated on flat bottom 96 well plates at approximately 250,000 cells/well in RPMI 1640 complete media.
Transduced CER21+ human primary B cells were washed once with 1×PBS and stained with 1 μM CELLTRACE Violet in PBS for 10 minutes at 37° C. The CER21+ human primary B cells were supplemented with growth media, washed once with 1×PBS to remove excess CELLTRACE Violet, and plated onto 96 well plate at approximately 50,000 cells/well in RPMI 1640 complete media. Human CER21+primary B cells and Jurkat cells were co-cultured at a target cell to effector cell ratio of 5:1 at 37° C. for 3 hours. After incubation, the co-culture plate was then centrifuged, and the media replaced with PBS supplemented with 2% fetal bovine serum, pH 9. Phagocytic events were quantified by fluorescent microscopy (KEYENCE BZ-X710 fluorescence microscope, 20X objective). […] Solid arrows show engulfment activity. Dashed arrows show cytolytic activity.
Apoptotic cells were quantified from fluorescent images using automated software, and the number of apoptotic cells per high power view (FIG. 20A) and total fluorescence emission per high power view (FIG. 20B) were calculated using pH indicator dye.

human primary B cells [2] = assay: Proliferation of CER+ B cells co-cultured with paclitaxel treated Jurkat cells (CELLTRACE Violet dilution); type: cell-based; conditions: 5 days co-culture with paclitaxel (30 μM) treated Jurkat cells, no exogenous cytokines
Description: The proliferation capacity of CER19+ and CER21+ human primary B cells was evaluated by co-culture with paclitaxel (30 μM) treated Jurkat lymphoma cells. CER-transduced B cells were labeled with CELLTRACE Violet and then co-cultured with paclitaxel treated Jurkat cells a target cell to effector cell ratio of 5:1 at 37° C. in the absence of exogenous cytokines for 5 days. Proliferation of CER19+ or CER21+B cells was assessed by flow cytometry by measuring dilution of CELLTRACE Violet (FIG. 23). Both CER19+ and CER21+ B cells increased approximately 10-fold after 5 days of co-culture in the absence of exogenous cytokines.

human primary B cells [3] = assay: Gene expression profile (activation state) of CER21+ B cells; type: cell-based; conditions: CD40, CD40L, RANTES, CXCL10, CXCL11, LTα, TNFa
From the text: To evaluate the activation state of CER21+ human primary B cells, gene expression profiles were examined from transduced B cell populations.

HPV E7 oncoproteins = assay: Antigen cross-presentation, E6/E7 TCR NFAT-luciferase Jurkat reporter; type: cell-based, human; conditions: CD4+ and CD8+ T cells after phagocytosis of SCC152 HPV+ cells, compared to mock
From the text: CD4+ and CD8+CER-expressing T cell lines were established from human PBMCs. Purified T cells were transduced with lentivirus encoding CER123 (SEQ ID NO:150) and truncated EGFR (transduction marker), after activation with CD3 & CD28 microbeads, and then expanded in medium containing IL-7, IL-15, and IL-2 for 5 days. The percentage of tEGFR+ T cells ranged between 40-60%.
A Jurkat cell line with a stable integration of an NFAT-inducible Luciferase reporter construct was utilized to study T cell responses. Human E6- and E7-specific engineered TCRs were transduced into Jurkat NFAT reporter cell lines to characterize NFAT activation upon co-culture with engineered CERs.
For assessing MHC-I cross-presentation, SCC152 HPV^+ cells were co-cultured overnight with CER123-expressing CD4+ and CD8+ T cells or mock-transduced (vector only) T cells in the presence of T cells expressing an E7-specific TCR. […] NFAT activation was assessed at serial time points (0, 6, 12, 24, and 72 hrs) by measuring luciferase activity in cell culture supernatants. […] Induction of E711-19 —specific Jurkat T cells were quantified by luminescence of NFAT signaling at indicated time points and compared to Mock (vector-alone) transduced T cells (FIG. 87).

[4] = test system: A549 ALK+Luciferase+ cells; assay: Adoptive transfer of CER T cells with ALK inhibitor in A549 ALK+ xenograft; type: in vivo, immunodeficient (NSG) mice; conditions: Alectinib 15 mg/kg intraperitoneally + 10e6 CER-transduced human T cells, NSG mice
Description: The combination of CER therapy and ALK inhibitor therapy was also evaluated in vivo. […] A549 ALK+Luciferase^+ cells were engrafted into immunodeficient (NSG) mice 21 days prior to initiation of study and evaluated for engraftment by bioluminescent emission and tumor volume seven days later. […] Animals received 10 μg of systemic IL-2 every 24 hours×3 days following cell infusion and then monitored for tumor progression and cell expansion and persistence thereafter.
Peripheral blood sample was stained with anti-human CD45-APC-conjugated antibody 8 days following cell infusion. Each FACS plot indicates a single animal. A bar graph depicting frequency of human CD45+ cells/μL of peripheral blood at days 4, 8, 16, and 25 post-adoptive transfer of CER122+ T cells (FIG. 77B). Peripheral blood was obtained by retro-orbital bleeding and examined for evidence of T cell engraftment by FACS. The frequency of human-CD45 cells/μL of peripheral blood was determined by FACs using TRUCOUNT (BD Biosciences) beads.

[5] = human primary B cells, target:effector 5:1, 3 hours

B1: CER21: Tim4 binding and transmembrane domains, TLR8 signaling domain; SEQ ID NO:88 (protein)
chain: MSKGLLLLWLVTELWWLYLTPAASEDTIIGFLGQPVTLPCHYLSWSQSRNSMCWGKGSCPNSKCNAELLRTDGTRIISRKSTKYTLLGKVQFGEVSLTISNTNRGDSGVYCCRIEVPGWFNDVKKNVRLELRRATTTKKPTTTTRPTTTPYVTTTTPELLPTTVMTTSVLPTTTPPQTLATTAFSTAVTTCPSTTPGSFSQETTKGSAFTTESETLPASNHSQRSMMTISTDIAVLRPTGSNPGILPSTSQLTTQKTTLTTSESLQKTTKSHQINSRQTILIIACCVGFVLMVLLFLAFLHHLFYWDVWFIYNVCLAKVKGYRSLSTSQTFYDAYISYDTKDASVTDWVINELRYHLEESRDKNVLLCLEERDWDPGLAIIDNLMQSINQSKKTVFVLTKKYAKSWNFKTAFYLALQRLMDENMDVIIFILLEPVLQHSQYLRLRQRICKSSILQWPDNPKAEGLFWQTLRNVVLTENDSRYNNMYVDSIKQY
modifications: CER21 chimeric engulfment receptor
- in vitro cytolysis of engulfed Jurkat cells [1, 5]: in vitro cytolysis of Jurkat cells
- in vitro phagocytosis of Jurkat cells [1, 5]: in vitro phagocytosis
- killing of target cells (apoptotic cells and fluorescence per high power view) ([1]; staurosporine treated (subtherapeutic dose) Jurkat cells): enhanced killing of target cells
- increase of CER+ B cells (human primary B cells [2]): approximately 10 fold
- activation state (B cell mRNA levels compared to transduced control B cells) (human primary B cells [3]): promoted B cell activation molecules and survival factors

B2: CER123: Tim4 binding and transmembrane domains, TLR2 primary and TRAF6 secondary signaling domains; SEQ ID NO:150 (protein)
chain: MSKGLLLLWLVTELWWLYLTPAASEDTIIGFLGQPVTLPCHYLSWSQSRNSMCWGKGSCPNSKCNAELLRTDGTRIISRKSTKYTLLGKVQFGEVSLTISNTNRGDSGVYCCRIEVPGWFNDVKKNVRLELRRATTTKKPTTTTRPTTTPYVTTTTPELLPTTVMTTSVLPTTTPPQTLATTAFSTAVTTCPSTTPGSFSQETTKGSAFTTESETLPASNHSQRSMMTISTDIAVLRPTGSNPGILPSTSQLTTQKTTLTTSESLQKTTKSHQINSRQTILIIACCVGFVLMVLLFLAFLHRFHGLWYMKMMWAWLQAKRKPRKAPSRNICYDAFVSYSERDAYWVENLMVQELENFNPPFKLCLHKRDFIPGKWIIDNIIDSIEKSHKTVFVLSENFVKSEWCKYELDFSHFRLFDENNDAAILILLEPIEKKAIPQRFCKLRKIMNTKTYLEWPMDEAQREGFWVNLRAAIKSMSLLNCENSCGSSQSESDCCVAMASSCSAVTKDDSVGGTASTGNLSSSFMEEIQGYDVEFDPPLESKYECPICLMALREAVQTPCGHRFCKACIIKSIRDAGHKCPVDNEILLENQLFPDNFAKREILSLMVKCPNEGCLHKMELRHLEDHQAHCEFALMDCPQCQRPFQKFHINIHILKDCPRRQVSCDNCAASMAFEDKEIHDQNCPLANVICEYCNTILIREQMPNHYDLDCPTAPIPCTFSTFGCHEKMQRNHLARHLQENTQSHMRMLA
modifications: CER123 protein
- cross-presentation of HPV E7 oncoproteins (NFAT activation) (HPV E7 oncoproteins): enhanced cross-presentation efficiency of HPV E7 oncoproteins

B3: CER122: Tim4 binding and transmembrane domains, TLR2 primary and DAP12 secondary signaling domains; SEQ ID NO:149 (protein)
chain: MSKGLLLLWLVTELWWLYLTPAASEDTIIGFLGQPVTLPCHYLSWSQSRNSMCWGKGSCPNSKCNAELLRTDGTRIISRKSTKYTLLGKVQFGEVSLTISNTNRGDSGVYCCRIEVPGWFNDVKKNVRLELRRATTTKKPTTTTRPTTTPYVTTTTPELLPTTVMTTSVLPTTTPPQTLATTAFSTAVTTCPSTTPGSFSQETTKGSAFTTESETLPASNHSQRSMMTISTDIAVLRPTGSNPGILPSTSQLTTQKTTLTTSESLQKTTKSHQINSRQTILIIACCVGFVLMVLLFLAFLHRFHGLWYMKMMWAWLQAKRKPRKAPSRNICYDAFVSYSERDAYWVENLMVQELENFNPPFKLCLHKRDFIPGKWIIDNIIDSIEKSHKTVFVLSENFVKSEWCKYELDFSHFRLFDENNDAAILILLEPIEKKAIPQRFCKLRKIMNTKTYLEWPMDEAQREGFWVNLRAAIKSYFLGRLVPRGRGAAEAATRKQRITETESPYQELQGQRSDVYSDLNTQRPYYK
modifications: CER122 protein
- anti-tumor response (tumor volume, bioluminescence) [4]: enhanced anti-tumor response to ALK+NSCLC in vivo
